Test results from article PMC5045296.
Each block holds one binder with its values, some of them ahead of it.

What was measured:
[1] = biological target: tubulin (alpha/beta heterodimer), polymerised into microtubules or as free tubulin-dimers (porcine) (UniProt P02550); test: co-sedimentation; KIF19A protein (printed 'Two micromoles') with 0-40 μM taxol-stabilized MTs in PEM buffer, 25°C, 15 min, AMP-PNP; 38,000 xg 10 min; SDS-PAGE band intensities; one site binding model
[2] = biological target: tubulin (alpha/beta heterodimer), polymerised into microtubules or as free tubulin-dimers (porcine) (UniProt P02550)
[3] = biological target: tubulin (alpha/beta heterodimer), polymerised into microtubules or as free tubulin-dimers (porcine) (UniProt P02550); remark: listed apart in the source
[4] = biological target: tubulin (alpha/beta heterodimer), polymerised into microtubules or as free tubulin-dimers (porcine) (UniProt P02550); remark: listed apart in the source
[5] = biological target: tubulin (alpha/beta heterodimer), polymerised into microtubules or as free tubulin-dimers (porcine) (UniProt P02550); remark: listed apart in the source
[6] = biological target: tubulin (alpha/beta heterodimer), polymerised into microtubules or as free tubulin-dimers (porcine) (UniProt P02550); remark: listed apart in the source

B1: KIF19A-353 (mouse KIF19A motor domain, monomeric construct) (domain or fragment)
chain: MKDSGDSKDQQLMVALRVRPISVAELEEGATLIAHKMDEQMVVLMDPMEDPDDILRAHRSREKSYLFDVAFDFTATQEMVYQATTKSLIEGVISGYNATVFAYGPTGCGKTYTMLGTDHEPGIYVRTLNDLFRAIEETSNDMEYEVSMSYLEIYNEMIRDLLNPALGYLELREDSKGVIQVAGITEVSTINAKEIMQLLMKGNRQRTQEPTAANQTSSRSHAVLQVAVRQRSRVKNILQEVRQGRLFMIDLAGSERASQTQNRGQRMKEGAHINRSLLALGNCINALSDKGSNKYINYRDSKLTRLLKDSLGGNSRTVMIAHISPASTAFEESRNTLTYAGRAKNIRTRVKQN
Kd [1]: 600 nM | MT-stimulated steady-state ATPase, maximum rate [2]: 1.43 s⁻¹ | steady-state ATPase stimulated by free tubulin-dimers, maximum rate [2]: 0.8 s⁻¹

B2: KIF19A-353 K2A (K290 and K294 replaced with alanine) (domain or fragment)
chain: MKDSGDSKDQQLMVALRVRPISVAELEEGATLIAHKMDEQMVVLMDPMEDPDDILRAHRSREKSYLFDVAFDFTATQEMVYQATTKSLIEGVISGYNATVFAYGPTGCGKTYTMLGTDHEPGIYVRTLNDLFRAIEETSNDMEYEVSMSYLEIYNEMIRDLLNPALGYLELREDSKGVIQVAGITEVSTINAKEIMQLLMKGNRQRTQEPTAANQTSSRSHAVLQVAVRQRSRVKNILQEVRQGRLFMIDLAGSERASQTQNRGQRMKEGAHINRSLLALGNCINALSDAGSNAYINYRDSKLTRLLKDSLGGNSRTVMIAHISPASTAFEESRNTLTYAGRAKNIRTRVKQN
EC50 of depolymerization of GMPCPP-stabilized MTs (5 mM ATP) [3]: 678 nM | MT depolymerization speed (TIRF, 125 nM motor) [3]: 2 nm/s | Kd [1]: 3000 nM

B5: KIF19A-353 GS2R (G291 and S292 mutated to arginine) (domain or fragment)
chain: MKDSGDSKDQQLMVALRVRPISVAELEEGATLIAHKMDEQMVVLMDPMEDPDDILRAHRSREKSYLFDVAFDFTATQEMVYQATTKSLIEGVISGYNATVFAYGPTGCGKTYTMLGTDHEPGIYVRTLNDLFRAIEETSNDMEYEVSMSYLEIYNEMIRDLLNPALGYLELREDSKGVIQVAGITEVSTINAKEIMQLLMKGNRQRTQEPTAANQTSSRSHAVLQVAVRQRSRVKNILQEVRQGRLFMIDLAGSERASQTQNRGQRMKEGAHINRSLLALGNCINALSDKRRNKYINYRDSKLTRLLKDSLGGNSRTVMIAHISPASTAFEESRNTLTYAGRAKNIRTRVKQN
Michaelis-Menten constant of the ATPase for MTs and for tubulins, against 353WT (times lower than 353WT) [5]: 4 | Kd [1]: 600 nM

Further lines, results first:

Kd [1]: 1600 nM
B3: KIF19A-353 L55A (domain or fragment)
chain: MKDSGDSKDQQLMVALRVRPISVAELEEGATLIAHKMDEQMVVLMDPMEDPDDIARAHRSREKSYLFDVAFDFTATQEMVYQATTKSLIEGVISGYNATVFAYGPTGCGKTYTMLGTDHEPGIYVRTLNDLFRAIEETSNDMEYEVSMSYLEIYNEMIRDLLNPALGYLELREDSKGVIQVAGITEVSTINAKEIMQLLMKGNRQRTQEPTAANQTSSRSHAVLQVAVRQRSRVKNILQEVRQGRLFMIDLAGSERASQTQNRGQRMKEGAHINRSLLALGNCINALSDKGSNKYINYRDSKLTRLLKDSLGGNSRTVMIAHISPASTAFEESRNTLTYAGRAKNIRTRVKQN

tubulin-stimulated ATPase rate, against the wild type (of the wild type) [4]: 0.5
B4: KIF19A-353 N297P (domain or fragment)
chain: MKDSGDSKDQQLMVALRVRPISVAELEEGATLIAHKMDEQMVVLMDPMEDPDDILRAHRSREKSYLFDVAFDFTATQEMVYQATTKSLIEGVISGYNATVFAYGPTGCGKTYTMLGTDHEPGIYVRTLNDLFRAIEETSNDMEYEVSMSYLEIYNEMIRDLLNPALGYLELREDSKGVIQVAGITEVSTINAKEIMQLLMKGNRQRTQEPTAANQTSSRSHAVLQVAVRQRSRVKNILQEVRQGRLFMIDLAGSERASQTQNRGQRMKEGAHINRSLLALGNCINALSDKGSNKYIPYRDSKLTRLLKDSLGGNSRTVMIAHISPASTAFEESRNTLTYAGRAKNIRTRVKQN

K (M, MT) of the MT-stimulated ATPase, against 353WT (times that of 353WT) [6]: 30 | Kd [1]: 5800 nM
B6: KIF19A-353 PC2A (R56A-H58A-R59A-R61A) (domain or fragment)
chain: MKDSGDSKDQQLMVALRVRPISVAELEEGATLIAHKMDEQMVVLMDPMEDPDDILAAAASAEKSYLFDVAFDFTATQEMVYQATTKSLIEGVISGYNATVFAYGPTGCGKTYTMLGTDHEPGIYVRTLNDLFRAIEETSNDMEYEVSMSYLEIYNEMIRDLLNPALGYLELREDSKGVIQVAGITEVSTINAKEIMQLLMKGNRQRTQEPTAANQTSSRSHAVLQVAVRQRSRVKNILQEVRQGRLFMIDLAGSERASQTQNRGQRMKEGAHINRSLLALGNCINALSDKGSNKYINYRDSKLTRLLKDSLGGNSRTVMIAHISPASTAFEESRNTLTYAGRAKNIRTRVKQN
